Laboratory results published in patent publication US20140223606, “COMPOSITIONS AND METHODS COMPRISING SEQUENCES HAVING MEGANUCLEASE ACTIVITY” (PIONEER HI BRED INTERNATIONAL INC, published 2014).

T1: ZM6.3(3) (artificial)
T1 chain: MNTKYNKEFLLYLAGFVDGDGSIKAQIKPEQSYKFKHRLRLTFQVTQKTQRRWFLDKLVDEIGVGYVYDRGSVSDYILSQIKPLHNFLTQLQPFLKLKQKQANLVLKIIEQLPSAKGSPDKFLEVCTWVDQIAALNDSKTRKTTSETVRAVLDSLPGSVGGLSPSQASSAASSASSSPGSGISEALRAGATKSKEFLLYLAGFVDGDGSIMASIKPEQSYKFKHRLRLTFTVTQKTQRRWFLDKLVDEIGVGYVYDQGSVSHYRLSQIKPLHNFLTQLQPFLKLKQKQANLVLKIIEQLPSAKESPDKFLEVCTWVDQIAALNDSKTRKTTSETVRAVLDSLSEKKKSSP

T2: ZM6.3(G5) (artificial)
T2 chain: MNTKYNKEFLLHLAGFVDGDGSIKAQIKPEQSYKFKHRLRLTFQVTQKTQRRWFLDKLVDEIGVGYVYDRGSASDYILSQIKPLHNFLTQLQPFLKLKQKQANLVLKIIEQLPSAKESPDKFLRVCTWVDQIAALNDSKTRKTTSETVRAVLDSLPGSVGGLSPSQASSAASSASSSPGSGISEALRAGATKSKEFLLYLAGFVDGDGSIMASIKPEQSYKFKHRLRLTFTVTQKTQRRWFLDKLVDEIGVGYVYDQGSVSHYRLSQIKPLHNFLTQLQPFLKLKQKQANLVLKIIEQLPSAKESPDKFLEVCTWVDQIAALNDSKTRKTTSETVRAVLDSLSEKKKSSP

T3: ZM6.22v2(J7) (artificial)
T3 chain: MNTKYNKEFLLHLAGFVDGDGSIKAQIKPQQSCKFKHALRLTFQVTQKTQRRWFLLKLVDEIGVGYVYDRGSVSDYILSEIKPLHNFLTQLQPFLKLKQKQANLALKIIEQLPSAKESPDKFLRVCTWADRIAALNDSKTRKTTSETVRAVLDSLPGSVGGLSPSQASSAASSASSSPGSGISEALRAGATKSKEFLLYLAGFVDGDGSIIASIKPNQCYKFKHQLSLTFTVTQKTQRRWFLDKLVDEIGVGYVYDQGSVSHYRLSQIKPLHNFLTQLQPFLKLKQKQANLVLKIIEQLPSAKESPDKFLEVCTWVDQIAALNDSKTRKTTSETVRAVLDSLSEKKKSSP

T4: ZM6.22v2(J4) (artificial)
T4 chain: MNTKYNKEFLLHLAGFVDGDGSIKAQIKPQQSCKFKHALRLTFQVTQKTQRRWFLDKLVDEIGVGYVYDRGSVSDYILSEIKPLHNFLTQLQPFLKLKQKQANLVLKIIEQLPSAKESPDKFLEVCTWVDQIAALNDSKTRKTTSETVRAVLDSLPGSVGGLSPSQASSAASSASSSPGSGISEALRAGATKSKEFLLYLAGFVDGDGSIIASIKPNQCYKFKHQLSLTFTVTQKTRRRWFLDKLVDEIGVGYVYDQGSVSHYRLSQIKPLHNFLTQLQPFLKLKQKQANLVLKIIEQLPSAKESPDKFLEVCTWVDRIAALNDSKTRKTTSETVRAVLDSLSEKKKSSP

T5: ZM6.22v2(J3) (artificial)
T5 chain: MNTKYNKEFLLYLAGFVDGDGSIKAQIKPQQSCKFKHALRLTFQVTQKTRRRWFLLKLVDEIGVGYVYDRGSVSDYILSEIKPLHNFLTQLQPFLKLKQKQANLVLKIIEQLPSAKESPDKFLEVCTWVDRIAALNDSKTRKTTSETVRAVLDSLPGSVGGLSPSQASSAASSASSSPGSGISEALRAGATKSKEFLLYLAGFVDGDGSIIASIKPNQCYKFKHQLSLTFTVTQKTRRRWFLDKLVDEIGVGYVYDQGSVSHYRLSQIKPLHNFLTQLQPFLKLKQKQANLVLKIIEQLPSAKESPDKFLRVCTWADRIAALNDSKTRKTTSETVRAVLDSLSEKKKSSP


Assays:
Conditions in all cases: tags: NLS, 6xHis
ZM6.3(3) = biological target: T1, ZM6.3(3); assay: cell_activity; yeast 37 C; 28 C: 0
Experimental: (§1) A 3 mL culture of selective media (MP Biomedical) was inoculated with a single colony of the yeast screening strain and grown at 30° C. overnight. On the following day, a 50 ml YPD culture (MP Biomedical) was started with 2 ml of the overnight culture and grown at 30° C. overnight. On the following day, the cells were harvested by centrifugation at 4000 rpm. The cells were resuspended in 100 ml ice cold water and centrifuged again. The cells were then washed in 1.2 M sorbitol, followed by treatment with 2 ml of 10 mM Tris pH 8.0, 1 mM EDTA, 100 mM Lithium acetate, 10 mM DTT, 0.6M sorbitol for 30 minutes at 30° C. with shaking. The cells were recovered by centrifugation, washed in 40 ml 1.2M sorbitol and finally resuspended in 250 microliters of 1.2M sorbitol. 50 microliter aliquots were transferred to test tubes on ice. Up to 5 microliters of DNA (100-500 nanograms) were added. The suspension was transferred to a 0.2 cm electroporation cuvette, on ice. Electroporation was performed with a pulse charge at 1.5 kV, 200 ohms, 25 microF (pulse time of 5 milliseconds). 1 mL YPD media (MP Biomedical) was added and the cells were allowed to recover at 30° C. for 1-2 hr. The cells were centrifuged, resuspended in 100 uL 1M sorbitol and plated on selective media lacking leucine and containing 2% galactose. The resulting yeast colonies were incubated at various temperatures ranging from 22 to 37 degrees Celsius for 7-10 days. I-CreI and meganucleases derived from it have maximal activity at or above 37 degrees Celsius. Screening was performed at a range of temperatures from 22 to 37 degrees in order to observe increases in activity at lower temperatures which are relevant to certain biological systems (eg. plant cells, plant cell cultures, etc). At that time the red/white sectoring phenotype, indicative of meganuclease activity was observed. Colonies with increased white sectoring over the parental meganuclease (indicating colonies expressing a meganuclease with increased meganuclease activity), also referred to as “hits” and sometimes completely white, were isolated for further analysis. […]

ZM6.3(G5) = biological target: T2, ZM6.3(G5); assay: cell_activity; yeast 37 C; 28 C: 0
Experimental: as §1

ZM6.22v2(J7) = biological target: T3, ZM6.22v2(J7); assay: cell_activity; yeast 37 C; 30 C: 0.5
Experimental: (§2) A 3 mL culture of selective media (MP Biomedical) was inoculated with a single colony of the yeast screening strain and grown at 30° C. overnight. On the following day, a 50 ml YPD culture (MP Biomedical) was started with 2 ml of the overnight culture and grown at 30° C. overnight. On the following day, the cells were harvested by centrifugation at 4000 rpm. The cells were resuspended in 100 ml ice cold water and centrifuged again. The cells were then washed in 1.2 M sorbitol, followed by treatment with 2 ml of 10 mM Tris pH 8.0, 1 mM EDTA, 100 mM Lithium acetate, 10 mM DTT, 0.6M sorbitol for 30 minutes at 30° C. with shaking. The cells were recovered by centrifugation, washed in 40 ml 1.2M sorbitol and finally resuspended in 250 microliters of 1.2M sorbitol. 50 microliter aliquots were transferred to test tubes on ice. Up to 5 microliters of DNA (100-500 nanograms) were added. The suspension was transferred to a 0.2 cm electroporation cuvette, on ice. Electroporation was performed with a pulse charge at 1.5 kV, 200 ohms, 25 microF (pulse time of 5 milliseconds). 1 mL YPD media (MP Biomedical) was added and the cells were allowed to recover at 30° C. for 1-2 hr. The cells were centrifuged, resuspended in 100 uL 1M sorbitol and plated on selective media lacking leucine and containing 2% galactose. The resulting yeast colonies were incubated at various temperatures ranging from 22 to 37 degrees Celsius for 7-10 days. I-CreI and meganucleases derived from it have maximal activity at or above 37 degrees Celsius. Screening was performed at a range of temperatures from 22 to 37 degrees in order to observe increases in activity at lower temperatures which are relevant to certain biological systems (eg. plant cells, plant cell cultures, etc). At that time the red/white sectoring phenotype, indicative of meganuclease activity was observed. Colonies with increased white sectoring over the parental meganuclease (indicating colonies expressing a meganuclease with increased meganuclease activity), also referred to as “hits” and sometimes completely white, were isolated for further analysis.
(§3) A total of 13 ZM6.22v2 variants with increased activity were confirmed in the yeast system (as described in Example 6). Increased activity was observed across a range of temperatures: 28 degrees Celsius, 30 degrees Celsius and 37 degrees Celsius, as shown in Table 16.

ZM6.22v2(J4) = biological target: T4, ZM6.22v2(J4); assay: cell_activity; yeast 37 C; 30 C: 0.5
Experimental: as §2, §3

ZM6.22v2(J3) = biological target: T5, ZM6.22v2(J3); assay: cell_activity; yeast 37 C; 30 C: 0.5
Experimental: as §2, §3

Binder | activity (ZM6.3(3)) [score 0-4] | activity (ZM6.3(G5)) [score 0-4] | activity (ZM6.22v2(J7)) [score 0-4] | activity (ZM6.22v2(J4)) [score 0-4] | activity (ZM6.22v2(J3)) [score 0-4]
ZM6.3 recognition site (dsDNA) DNA 1: CAGGCTCTCGTAAATGCGCCTG DNA 2: CAGGCGCATTTACGAGAGCCTG | 2 | 2 | – | – | –
ZM6.22v2 recognition site (dsDNA) DNA 1: ATTGCTCTCTCACATACTTTTA DNA 2: TAAAAGTATGTGAGAGAGCAAT | – | – | 3 | 3.5 | 3
